The text below walks through data of publication PMC7001585 (Proteins, 2017).

The data set concerns the molecule itself. Put plainly: crystal structure.

B1: CepR2 ligand binding domain (CepR2-LBD, 1-170) (domain or fragment)
chain: SNAMDLTILHDCFDALQRAPTAEAAFPPIAAAAAALGFRYCVYGLRRTLPLARPDMQIVGNHPREWEHRYVKFGYVTIDPIIKRVASQPRPVVWNAFDEPGDTAFWHDAACFGMRYGWSHGGYDRAGNLGVLTLVRDTTPLDADEISRLRAPCASLSHAAHAYLMPRLADPIA
modifications: selenomethionine (SeMet-substituted protein; SeMet53 named)
As for B1, the “stoichiometry N” value worked out at 2.
